From PMC5941314

Legend:
Ube2T (Homo sapiens) = Ube2T (Homo sapiens) (UniProt Q9NPD8); conditions: cited from earlier work
[1] = molecular target: ZNRF1^CTD (C-terminal domain of ZNRF1, residues 139–227) (UniProt Q8ND25); assay: ITC; ZNRF1 construct (10–30 µM) in the cell, E2 in the syringe; 25°C; 20 mM sodium phosphate pH 8.0, 150 mM NaCl; single site model
ZNRF1^CTD (C-terminal domain of ZNRF1, residues 139–227), sequence (Q8ND25 139-227): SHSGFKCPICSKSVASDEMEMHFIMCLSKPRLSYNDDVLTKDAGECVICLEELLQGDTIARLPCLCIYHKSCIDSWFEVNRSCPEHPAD

Ube2D2, sequence (P62837 whole entry): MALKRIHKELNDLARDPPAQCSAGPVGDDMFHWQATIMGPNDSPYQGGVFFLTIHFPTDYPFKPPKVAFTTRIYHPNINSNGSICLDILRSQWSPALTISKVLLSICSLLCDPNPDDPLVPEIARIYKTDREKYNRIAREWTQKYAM
Ube2W, sequence (Q96B02 whole entry): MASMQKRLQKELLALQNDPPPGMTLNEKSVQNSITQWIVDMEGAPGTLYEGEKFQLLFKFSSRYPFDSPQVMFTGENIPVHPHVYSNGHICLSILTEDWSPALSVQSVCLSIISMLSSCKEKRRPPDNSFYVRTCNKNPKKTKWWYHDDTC
Ube2T (Homo sapiens), sequence (Q9NPD8 whole entry, the tested form may be a part): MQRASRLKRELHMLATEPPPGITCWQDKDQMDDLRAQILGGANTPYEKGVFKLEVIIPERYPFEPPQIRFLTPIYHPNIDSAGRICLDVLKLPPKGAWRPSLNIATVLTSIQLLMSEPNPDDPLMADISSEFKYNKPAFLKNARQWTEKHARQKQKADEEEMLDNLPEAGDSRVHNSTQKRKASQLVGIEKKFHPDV
FANCL, sequence (Q9NW38 2-375): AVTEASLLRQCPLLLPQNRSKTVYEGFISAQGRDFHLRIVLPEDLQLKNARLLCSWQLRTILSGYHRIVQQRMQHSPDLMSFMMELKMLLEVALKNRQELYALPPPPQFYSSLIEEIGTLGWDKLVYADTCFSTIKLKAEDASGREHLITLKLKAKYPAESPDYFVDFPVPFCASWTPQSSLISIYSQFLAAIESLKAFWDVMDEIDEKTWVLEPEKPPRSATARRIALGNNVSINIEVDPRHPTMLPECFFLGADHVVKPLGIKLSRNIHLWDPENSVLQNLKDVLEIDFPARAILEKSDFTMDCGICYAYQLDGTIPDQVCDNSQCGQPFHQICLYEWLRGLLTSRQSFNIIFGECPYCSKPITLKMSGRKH

Substance: FANCL (from UniProt Q9NW38)
- Kd (Ube2T (Homo sapiens)): 500 nM

Substance: Ube2D2 (from UniProt P62837 1-147) (enzyme)
- dH [1]: -7.79 kcal/mol
- stoichiometry N [1]: 0.963

Substance: Ube2W (from UniProt Q96B02 1-151) (enzyme)
- dH [1]: -8.85 kcal/mol
- stoichiometry N [1]: 0.906
